Results on four substances are retold here after article PMC3469484.

Numbering of substitutions follows the chain as printed.

The test system of series [1] is T1, OhrR WT (Chromobacterium violaceum ATCC 12472), ORF:deafe3b3.
T1 sequence: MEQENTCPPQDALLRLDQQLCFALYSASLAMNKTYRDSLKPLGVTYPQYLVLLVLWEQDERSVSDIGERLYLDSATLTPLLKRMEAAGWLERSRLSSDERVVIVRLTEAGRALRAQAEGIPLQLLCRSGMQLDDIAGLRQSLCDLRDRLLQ
The series can be described thus: EMSA. The conditions noted are these: EMSA: 20 mM Tris-HCl pH 7.4, 50 mM KCl, 1 mM DTT, 1 mM EDTA, 5% glycerol, 0.05 mg/ml BSA, 0.1 mg/ml salmon sperm DNA, 25 C, 25 min; footprinting the same ….

Series [2] has as its system T2, OhrR C126S C126S (Chromobacterium violaceum ATCC 12472), ORF:deafe3b3.
T2 sequence: T1 sequence with C126S
The series can be described thus: EMSA. To be noted: EMSA: 20 mM Tris-HCl pH 7.4, 50 mM KCl, 1 mM DTT, 1 mM EDTA, 5% glycerol, 0.05 mg/ml BSA, 0.1 mg/ml salmon sperm DNA, 25 C, 25 min; footprinting the same ….

Series [3] deals with T1, OhrR WT (Chromobacterium violaceum ATCC 12472), ORF:deafe3b3. The series can be described thus: DNase I footprinting. The conditions noted are these: EMSA: 20 mM Tris-HCl pH 7.4, 50 mM KCl, 1 mM DTT, 1 mM EDTA, 5% glycerol, 0.05 mg/ml BSA, 0.1 mg/ml salmon sperm DNA, 25 C, 25 min; footprinting the same ….
The target in series [4] is Chromobacterium violaceum OhrR (CV0210), wild type, N-terminal histidine tag (Chromobacterium violaceum). Put plainly: cross-linking; intermolecular disulfide bond formed on oxidation, read by 14% nonreducing SDS-PAGE: DTT-reduced, desalted OhrR (10 µM) treated with 100 µM cumene hydroperoxide for 30 min, then alkylated with 100 mM NEM for 2 h; Coomassie stain.

For “TGAATTCAATCCGTGACGCCGCACAGGGCGCCGGAATGGAACATTCGCGCGCGAACCGGAAAGCGACTCAGCAACGCATCCAGCCTGTCGACACATGCCTCAGCCACATCAGGACTCCTTATCAAATTTTCAGGATCCTATGCAGCTTATCGTCATTTTGCTTGGCATAAAGTTTCTCCAGCCAAACGGCTTAAGCCCACCAACCATCAGGAGCACATCATGTCGATTGAAACCATTCTGTACCGGACCCAAGCCACCGTAAGCTTA (double strand) [ohrB promoter]”, the binding result in series [1] is on record as “no binding”.
“TAAGCTTGCGGTGGCTTCGGCGGTATACAGTACTTTTTGCAGAGGGTTCATCTGGCTCTCCTTGGCTTGACGCCGTTGCGATTAAAATAATGAGCTATTTAATAGTGCACTATCTAACTATCAAAACCCTGACGGGTTCATTGCAGCAGCCGGTCGCGCAGATCGCACAGCGACTGCCTCAATCCGGCGATATCGTCCAGTTGCATTCCGCTCCGGCAGGATCCA (double strand) [ohrA promoter]”: the binding entry in series [2], in series [1] and in series [3] was “binds” each time.
On to “Chromobacterium violaceum OhrR (CV0210), wild type, N-terminal histidine tag (natural protein)”, for which, in series [4], the stoichiometry N came to 2.
Regarding “TGGATCCCTCGCTGGCCGATCTGGGACGCGGCCCGGTGCGGGCGGCCGCCTGATCGCGGTTTCGCGCCCGCTTGGCGCGGGCGCGTCGCGGTTCCGCATAATAATAAATTGCTTGCAATTAAATAGTGCACTATTTATTATGCGGCCATGGAACAAGAAAACACGTGCCCGCCGCAGGACGCGCTTTTGCGGCTGGACCAGCAACTCTGCTTCGCGCTGTATTCCGCCAAGCTTA (double strand) [ohrR promoter]”, the binding entry in series [2], in series [1] and in series [3] was “binds” throughout.
